In patent US9580716B2, “Site-specific incorporation of phosphoserine into proteins in Escherichia coli” (Yale University, priority 2010, dated 2017):

B1: tRNA^Sep: amber suppressor tRNA derived from Mj tRNA^Cys with C20U change and two anticodon mutations; SEQ ID NO:41 (nucleic acid)
chain: GCCGGGGTAGTCTAGGGGTTAGGCAGCGGACTGCAGATCCGCCTTACGTGGGTTCAAATCCCACCCCCGGCT
modifications: expressed or natural sequence

Legend:
E. coli Top10ΔserB = assay: CAT (UAG at position 112) suppression assay, chloramphenicol resistance; format: cell-based, Escherichia coli
Description: The suppressor tRNA^Sep was coexpressed with the indicated enzymes in E. coli Top10ΔserB. Selection was carried out on LB agar plates containing 2 mM Sep and various concentrations of chloramphenicol.
pCAT112TAG-SepT was created from pACYC 184. The gene encoding chloramphenicol acetyltransferae (CAT) was modified by quickchange mutagenesis to introduce an amber stop codon at position Asp112 (Wang L, et al. Science 292:498 (2001)). The resulting plasmid was PCR amplified using primers PBLAF (5′-TGCGCAATGCGGCCGCCCGTAGCGCCGATGGTAGTGT-3′, SEQ ID NO:9) and PBLAR (5′-ACACGGAGATCTCTAAAGTATATATGAGTAAAC-3′, SEQ ID NO: 10) and ligated with a PCR product containing a tRNA^Sep expression cassette from pSepT, created with primers TSEPF (5′-GCATGCGCCGCCAGCTGTTGCCCGTCTCGC-3′, SEQ ID NO:17) and TSEPR (5′-GCATAGATCTTCAGCTGGCGAAAGGGGGATG-3′, SEQ ID NO:18).
Efficient and selective addition of Sep to the E. coli genetic repertoire requires exclusive interaction of SepRS with tRNA^Sep for Sep-tRNA^Sep formation without interfering in the host translation system as well as a sufficient intracellular concentration of Sep. As E. coli has a Sep-compatible transporter (Wanner, B L. FEMS Microbiol Lett 79, 133 (1992)), Sep (2 mM) was added to the growth medium, and the endogenous serB gene encoding phosphoserine phosphatase was deleted in the E. coli test strain. To assess whether the Mj tRNA^Sep/Mmp SepRS pair is functional and orthogonal in E. coli, a suppression assay was performed that employed a chloramphenicol acetyltransferase (CAT) gene with a UAG stop codon at the permissive position 112 (wild-type amino acid: Asp) to produce chloramphenicol (Cm) acetyltransferase; then cell survival was measured in the presence of Sep and varying amounts of Cm. The different IC50 values (FIG. 2) relate to suppression efficiency (i.e., amount of CAT made dependent on the various transformed genes). When only tRNA^Sep is expressed (FIG. 2, second bar) Cm resistance increases about 3.3-fold over background (FIG. 2, first bar). Thus, tRNA^Sep can be aminoacylated to a certain degree by an unknown E. coli aminoacyl-tRNA synthetase (Gln is being incorporated at the amber stop codon). […] This may indicate that SepRS can out-compete any endogenous aminoacyl-tRNA synthetase and form Sep-tRNAS^Sep; however, this aminoacyl-tRNA is not delivered to the ribosome or not accommodated on the ribosome. […] Co-expression of tRNA^Sep, SepRS and SepCysS should result in formation of Sep-tRNA^Sep and subsequent SepCysS-mediated conversion to Cys-tRNA^Sep (A. Sauerwald et al., Science 307, 1969 (2005)). Indeed, a 2.3-fold increase in Cm resistance is observed (FIG. 2, sixth bar). This further supports the notion that while Sep-tRNA^Sep is synthesized, it cannot be used properly by the E. coli protein biosynthesis machinery.
Resulting pKD-SepRS-EFTu plasmids were transformed into E. coli Top10ΔserB containing pCAT112-SepT for a third round of selection which was carried out under the same conditions as the first. This time, individual colonies were isolated from agar plates and clones were tested for their ability to grow on Cm over a concentration range from […]. Total plasmid was purified from isolates showing strong Cm resistance, and pKD-SepRS-EFTu plasmids were subjected to sequencing. […]

[^35S]Cys-tRNA^Cys = EF-Tu hydrolysis protection assay with Cys-tRNA^Cys; format: binding, Methanocaldococcus jannaschii; conditions: pH 8.2; FIG. 5A
Description: FIGS. 5A and 5B are graphs showing EF-Tu protects Cys-tRNA^Cys(FIG. 5A) but not Sep-tRNA^Cys (FIG. 5B) from deacylation. Hydrolysis of M. jannaschii [^35S]Cys-tRNA^Cys or [^14C]Sep-tRNA^Cys was determined at pH 8.2 and room temperature in the presence or absence of EF-Tu.
Given that EF-Tu is a component of quality control in protein synthesis (LaRiviere, FJ., et al. Science 294, 165 (2001)), it is highly plausible that Sep-tRNA^Sep may be rejected by EF-Tu in order not to interfere with the complicated cellular mechanism of phosphoprotein production. […] This assumption was tested in EF-Tu mediated Sep-tRNA hydrolysis protection experiments (J. Ling et al., Proc Natl Acad Sci USA 104, 15299 (2007)), and incubated recombinant E. coli EF-Tu with the Mj tRNA^Cys in vitro transcript either acylated with [^35S]Cys or [^14C]Sep at pH 8.2. […]
(§1) To assay hydrolysis protection of acylated tRNA^Cys by EF-Tu, […] tRNA^Cys in vitro transcripts acylated with [^14C]Sep or [^35S]Cys, respectively, were phenol/chlorophorm extracted, and the aqueous phase was passed over Sephadex® G25 Microspin columns (GE Healthcare) equilibrated with water. […] Hydrolysis of 2 μM [^14C]Sep-tRNA^Cys was then monitored at 25° C. in the presence of 40 μM EF-Tu (wt), EF-Sep, or BSA, respectively. […] Filters were washed with 5% trichloroacetic acid, dried, and radioactivity was measured by liquid scintillation counting.

[^14C]Sep-tRNA^Cys = EF-Tu hydrolysis protection assay with Sep-tRNA^Cys; format: binding, Methanocaldococcus jannaschii; conditions: pH 8.2; 40 μM factor, 2 μM [^14C]Sep-tRNA^Cys, 25° C.; FIG. 3 and FIG. 5B
Description: Protection of Sep-tRNA^Cys by EF-Tu was assayed as described earlier with slight modifications (Ling J, et al. RNA. 2007 November; 13(11):1881-6.). Briefly, EF-Tu or EF-Sep (both purified as maltose binding protein fusion proteins) were activated for 20 min. at 37° C. in buffer containing 100 mM Tris-HCl (pH 8.2), 120 mM NH4Cl, 7 mM MgCl2, 5 mM DTT, 5 mM phosphoenolpyruvate, 1.5 mM GTP, and 0.12 μg/μl pyruvate kinase. Hydrolysis of 2 μM [^14C]Sep-tRNA^Cys was then monitored at 25° C. in the presence of 40 μM EF-Tu (wt), EF-Sep, or BSA, respectively. Aliquots were taken from the reaction mix at indicated time points and spotted on 3MM filter discs presoaked with 10% trichloroacetic acid. Filters were washed with 5% trichloroacetic acid, dried, and radioactivity was measured by liquid scintillation counting.
as §1

Mmp SepRS = assay: In vitro aminoacylation of tRNA with Sep by Mmp SepRS; format: biochemical, Methanococcus maripaludis
Description: In vitro transcript of Methanocaldococcus jannaschii tRNA^Cys was prepared and acylated with [^14C]Sep (55 mCi/mmol) using recombinant Methanococcus maripaludis SepRS as described previously by Hohn M J, et al. Proc Natl Acad Sci USA. 2006 Nov. 28; 103(48):18095-100. Sep-tRNA^Cys was phenol/chlorophorm extracted, and the aqueous phase was passed over Sephadex G25 Microspin columns (GE Healthcare) equilibrated with water.
Total tRNA from E. coli Top10 or from E. coli Top10 complemented with pCysT or pSepT, respectively, was purified by standard procedures and acylated with [^14C]Sep by M. maripaludis SepRS as described previously. […] M. jannaschii tRNA^Cys contains m^1G37 when isolated from M. jannaschii. Since the E. coli methylase TrmD is known to methylate G37 of archaeal tRNA^Pro, it is believed that the in vivo expressed tRNA^Sep also carries the m^1G37 modification. In vitro transcript of M. jannaschii tRNA^Cys was prepared and acylated with [^14C]Sep or [^35S]Cys using recombinant M. maripaludis SepRS or CysRS. M. jannaschii tRNA^Cys transcript was chosen for these experiments because of the poor folding properties of in vitro transcribed M. maripaludis tRNA^Cys (Hohn, M. J. Proc Natl Acad Sci USA 103, 18095 (2006)).

Sequence of Mmp SepRS (as listed by the source): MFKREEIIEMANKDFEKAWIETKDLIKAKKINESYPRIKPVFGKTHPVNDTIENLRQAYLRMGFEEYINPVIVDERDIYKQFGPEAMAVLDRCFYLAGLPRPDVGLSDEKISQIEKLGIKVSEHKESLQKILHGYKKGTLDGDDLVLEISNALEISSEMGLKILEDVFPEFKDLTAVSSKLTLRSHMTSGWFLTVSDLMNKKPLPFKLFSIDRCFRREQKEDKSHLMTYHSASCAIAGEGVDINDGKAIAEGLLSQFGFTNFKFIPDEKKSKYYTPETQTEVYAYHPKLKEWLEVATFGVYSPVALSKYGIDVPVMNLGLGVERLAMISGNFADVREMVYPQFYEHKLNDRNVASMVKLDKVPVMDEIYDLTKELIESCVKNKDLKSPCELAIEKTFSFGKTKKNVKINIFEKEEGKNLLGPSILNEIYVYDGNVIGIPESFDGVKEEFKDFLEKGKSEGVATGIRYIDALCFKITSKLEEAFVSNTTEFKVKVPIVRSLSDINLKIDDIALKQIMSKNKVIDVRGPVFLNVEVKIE

Row | Molecule | Cm resistance (E. coli Top10ΔserB; tRNA^Sep and SepRS plus additional EF-Tu, FIG. 2 fifth bar) | protection of Cys-tRNA^Cys from deacylation ([^35S]Cys-tRNA^Cys) | protection of Sep-tRNA^Cys from deacylation ([^14C]Sep-tRNA^Cys) | increase in Cm resistance (E. coli Top10ΔserB; co-expression of tRNA^Sep and Mmp CysRS, FIG. 2 eight bar) | increase in Cm resistance (E. coli Top10ΔserB; co-expression of tRNA^Sep, SepRS and SepCysS, FIG. 2 sixth bar) | increase in Cm resistance over background (E. coli Top10ΔserB; only tRNA^Sep expressed, 2 mM Sep, FIG. 2 second bar) | Cm resistance (E. coli Top10ΔserB; simultaneous expression of tRNA^Sep and SepRS, FIG. 2 third bar) | activity of tRNA^Sep when compared to tRNA^Cys (Mmp SepRS; in vitro aminoacylation by Mmp SepRS, tRNA overexpressed in E. coli, effect of the anticodon change, FIG. 1C) | improvement of aminoacylation by SepRS through the C20U change (Mmp SepRS; tRNA^Sep derived from Mj tRNA^Cys, no effect on CysRS recognition)
1 | EF-Tu: wild type recombinant E. coli elongation factor Tu | does not improve the result | protected | significantly deacylated irrespective of the presence of EF-Tu |  |  |  |  |  | 
2 | B1 |  |  |  | 12.3 fold | 2.3 fold | about 3.3 fold | does not provide Cm resistance | about 40% | 2.5 fold
